The results in this text go back to patent publication US20230159663A1 (VIRTUOSO BINCO, published 2023).

Numbering of substitutions follows the chain as printed.

A word on the EC50: it is the concentration needed to bring the measured effect to its halfway point.

Test [1] addresses T1, human CD47 extracellular domain with C-terminal 6×His tag (human, UniProt Q08722 19-139, limits assumed).
T1 construct: extracellular domain; Made in Expi293F cells (section 5.4.1); also called recombinant CD47; huCD47
Description: ELISA on human CD47; EC50 given as a bin, limits from the table's legend; upper limit of bin A. On the technique in general: ELISA stands for enzyme-linked immunosorbent assay.
Description: (§1) A 96-well plate was coated overnight at 4° C. with 1 μg/ml recombinant CD47. After washing 3 times, the plate was blocked with 300 μl 1% BSA in PBST at 37° C. for 1 hour. Serially diluted antibodies were added and incubated at 37° C. for 1 hour. […] The plate was washed again 4 times with PBST, incubated with 3,3′,5,5′-tetramethylbenzidine (TMB) substrate for 15 min at room temperature, terminated with 1N HCl, and then read at 450 nm.

Test [2] deals with T2, CD47 expressed on human red blood cells (human, UniProt Q08722 19-323).
T2 construct: whole, on cells; also called RBCs; RBC
Put plainly: flow cytometry on human red blood cells.
Description: The RBC binding assay was performed by spinning down fresh human whole blood at 200 g for 10 minutes. Collected RBCs were washed twice with PBS and counted using flow cytometry. 1×10⁶ cells were dispensed into each well of a 96 well culture plate. Serially diluted anti-CD47 antibodies were added and incubated for 1 hour at 4° C. Cells were washed with FACS buffer (PBS+2% FBS) twice. […] Cells were washed twice and resuspended in 200 μl of FACS buffer and analyzed by flow cytometry.

Test [3] deals with T1, human CD47 extracellular domain with …. Put plainly: ELISA on human CD47; EC50 given as a bin, limits from the table's legend; lower limit of bin A.
Description: as §1
The target is the same in test [4]. Description: ELISA on human CD47; EC50 given as a bin, limits from the table's legend; upper limit of bin B.
Description: as §1
The target is the same in test [5]. Description: ELISA on human CD47; EC50 given as a bin, limits from the table's legend; lower limit of bin B.
Description: as §1
For test [6] the target is unchanged. Put plainly: ELISA on human CD47; EC50 given as a bin, limits from the table's legend; lower limit of bin C.
Description: as §1
The target is the same in test [7]. Description: ELISA on human CD47; EC50 given as a bin, limits from the table's legend; upper limit of bin C.
Description: as §1
The target in test [8] is T3, human EpCAM extracellular domain with C-terminal His tag (Novoprotein #C339) (human, UniProt P16422 24-265).
T3 construct: extracellular domain; Bought protein
T3 sequence (looked up): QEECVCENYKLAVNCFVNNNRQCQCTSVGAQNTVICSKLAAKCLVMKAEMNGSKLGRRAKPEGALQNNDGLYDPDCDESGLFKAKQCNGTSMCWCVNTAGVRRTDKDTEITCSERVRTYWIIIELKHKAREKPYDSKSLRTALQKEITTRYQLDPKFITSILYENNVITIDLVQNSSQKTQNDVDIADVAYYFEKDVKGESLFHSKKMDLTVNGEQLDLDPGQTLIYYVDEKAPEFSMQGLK
Put plainly: assay not given; ranks EpCAM affinity among Bi-1, Bi-2 and Bi-8.

Test [9] concerns the target T1, human CD47 extracellular domain with …. Put plainly: ELISA on human CD47.

B1: VIR47 hIgG1 (antibody)
heavy: not shown
light: SYEMTQPPSVSVSPGQTARITCSGDALPKKYAYWYQQKSGQAPVLVIYEDNKRPSGIPERFSGSSSGTMATLTISGAQVEDEADYYCYSTDISGNHWVFGGGTELTVLGQPKAAPSVTLFPPSSEELQANKATLVCLISDFYPGAVTVAWKADSSPVKAGVETTTPSKQSNNKYAASSYLSLTPEQWKSHRSYSCQVTHEGSTVEKTVAPTECS
notes: also called VIR47 IgG1; IgG1 form of VIR47
With B1, the values for the EC50 in test [1] and in test [3] were ≤ 0.15 nM and ≥ 0.01 nM, respectively. Moreover, the “fold higher concentration required for RBC binding, against CD47 BMK-1” value in test [2] is > 20 fold.

B2: VIR47 IgG1 HC G100aA (antibody, V domains shown)
VH: EVQLLESGGGLVQPGGSLRLSCAASGFTFSNFAMSWVRQAPGKGLEWVSTISASGGRTFYADSVKGRITISRDNSKNTLFLQMNGLRAEDTAVYYCAKEGSFGEAVDPWGQGTLVTVSS
VL: SYEMTQPPSVSVSPGQTARITCSGDALPKKYAYWYQQKSGQAPVLVIYEDNKRPSGIPERFSGSSSGTMATLTISGAQVEDEADYYCYSTDISGNHWVFGGGTELTVLG
notes: Alanine-scan variant of the IgG1 form of VIR47; position in Kabat-style numbering, not the linear count on the entry
Take B2: the figures for the EC50 in test [4] and in test [5] were ≤ 0.4 nM and ≥ 0.15 nM, respectively.

B3: VIR47 IgG1 HC F98A (antibody, V domains shown)
VH: B2 VH with F102A, A105G
VL: B2 VL
notes: as for B2
On to B3, for which the EC50 is ≥ 0.4 nM in test [6] and ≤ 5 nM in [7].

B4: Bi-8 (3C-KIH EpCAM × CD47 scFv bispecific antibody) (bispecific antibody)
chain: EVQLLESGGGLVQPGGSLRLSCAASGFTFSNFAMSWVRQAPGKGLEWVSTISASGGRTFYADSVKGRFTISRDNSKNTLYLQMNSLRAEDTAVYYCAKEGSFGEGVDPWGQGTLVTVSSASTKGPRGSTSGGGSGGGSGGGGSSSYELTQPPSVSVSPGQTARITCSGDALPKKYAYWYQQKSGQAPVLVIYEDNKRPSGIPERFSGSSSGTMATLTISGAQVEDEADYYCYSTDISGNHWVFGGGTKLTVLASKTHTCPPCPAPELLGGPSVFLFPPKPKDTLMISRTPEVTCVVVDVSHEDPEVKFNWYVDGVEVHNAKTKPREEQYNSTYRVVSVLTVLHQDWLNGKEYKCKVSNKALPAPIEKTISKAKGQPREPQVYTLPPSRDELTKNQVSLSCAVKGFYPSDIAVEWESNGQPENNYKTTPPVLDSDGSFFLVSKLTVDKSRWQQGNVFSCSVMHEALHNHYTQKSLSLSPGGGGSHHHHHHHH
heavy: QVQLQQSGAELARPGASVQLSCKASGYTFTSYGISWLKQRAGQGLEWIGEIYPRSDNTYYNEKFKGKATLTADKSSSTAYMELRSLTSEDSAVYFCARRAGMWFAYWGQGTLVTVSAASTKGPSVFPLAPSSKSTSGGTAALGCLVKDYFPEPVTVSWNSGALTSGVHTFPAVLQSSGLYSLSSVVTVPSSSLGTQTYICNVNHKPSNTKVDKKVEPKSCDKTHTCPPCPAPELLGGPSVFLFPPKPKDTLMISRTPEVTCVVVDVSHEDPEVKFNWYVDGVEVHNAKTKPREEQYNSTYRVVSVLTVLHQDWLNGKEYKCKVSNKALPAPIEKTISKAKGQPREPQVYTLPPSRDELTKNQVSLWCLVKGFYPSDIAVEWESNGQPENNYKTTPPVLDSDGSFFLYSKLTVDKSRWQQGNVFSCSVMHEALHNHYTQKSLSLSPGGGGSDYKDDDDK
VL: EIVLTQSPAITAASLGQKVTITCSASSSVSDMHWYQQKSGTSPKPWIYEISKLASGVPTRFSGSGSGTSYSLTISSMEAEDAAIYYCQHWSYPLMTFGGGTKLEIK
notes: Three-chain knob-into-hole format
With B4, the binding result in [8] and in test [9] was “binds” in each case.
